Publication PMC7090148 (2020)

Target: NTAP-tagged TRAPPC8
Assay: co-IP (IP: anti-Myc, immunoblot)
Conditions: 0.5% input, parent: 1

| ratio to parent | Substance |
| --- | --- |
| 0.7 | Mouse OFD1, wild type (from UniProt Q80Z25) S75F |
| 1 | Mouse OFD1, wild type (from UniProt Q80Z25) G139S |
| 1.04 | Mouse OFD1, wild type (from UniProt Q80Z25) A80T |
| 1.02 | Mouse OFD1, wild type (from UniProt Q80Z25) S437R |
